Experimental data: article PMC11532998
Values joined by “and” are separate entries in the source; they are usually repeats but may differ in a detail not shown here. Equal entries are not always repeated.

Assays:
[1] = target: NfsB with C-terminal encapsulin localization sequence (cargo of Enc{NfsB}) (E. coli | M. smegmatis)
[2] = target: T1, encapsulin from Mycobacterium smegmatis (UniProt ID: I7G8Y9), C-terminal Strep-tag (Mycobacterium smegmatis mc2 155); assay: SDS-PAGE gel densitometry of the co-purified complex; Enc{tdNfsB} at 500 ug/mL on a 15% gel, Coomassie; calibration curves of Enc and tdNfsB; molar ratio of tdNfsB (52.3 kDa) to Enc shell (1804.2 kDa); repeated twice
[3] = target: T1, encapsulin from Mycobacterium smegmatis; assay: cryo-EM structure; same data set of purified Enc{tdNfsB}; the shell was subtracted from the particles, 2-D classification and low-resolution 3-D reconstruction of the interior; cargo and shell co-expressed in E. coli

NfsB with C-terminal encapsulin localization sequence (cargo of Enc{NfsB}) (enzyme)
conversion of caged-hydroxy-CBT after 60 min by Enc{NfsB} (coupled luciferase assay), against 50% for free NfsB and tdNfsB and a comparable conversion for Enc{tdNfsB} [1]: 10%

tandem NfsB with C-terminal encapsulin localization sequence (cargo of Enc{tdNfsB}) (enzyme)
stoichiometry N (tdNfsB units per shell) [2]: 10 and 13 | stoichiometry N (tdNfsB per capsid) [3]: 6
